The results in this text go back to US20140249076A1, “AMYLIN-CALCITONIN CHIMERIC PEPTIDES CONJUGATED TO DURATION ENHANCING MOIETIES” (AMYLIN PHARMACEUTICALS, LLC, priority 2011, published 2014).

Numbered stars: 1 amine (or outer) side, 2 acyl side, 3 side chain; on linkers, the order of the positions; unused ones are H or OH. Side chains are listed from the residue outwards. Ends that are not written are not given here. γGlu = O=C(O)[C@H](CCC(=O)[*:2])N[*:1]

The target of experiment [1] is rat C1a calcitonin receptor (rat) (UniProt P32214). The experiment in a line: displacement of 125I-human calcitonin from C1a-HEK cell membranes.
The target in experiment [2] is CGRP receptor (SK-N-MC cell membranes) (UniProt Q16602). The experiment in a line: displacement of 125I-human CGRP from SK-N-MC cell membranes.
Experiment [3] addresses amylin receptor (RNA membranes). Briefly: displacement of 125I-rat amylin from RNA membranes.

CGRP receptor (SK-N-MC cell membranes), sequence (Q16602 23-461, chain 1 of 2): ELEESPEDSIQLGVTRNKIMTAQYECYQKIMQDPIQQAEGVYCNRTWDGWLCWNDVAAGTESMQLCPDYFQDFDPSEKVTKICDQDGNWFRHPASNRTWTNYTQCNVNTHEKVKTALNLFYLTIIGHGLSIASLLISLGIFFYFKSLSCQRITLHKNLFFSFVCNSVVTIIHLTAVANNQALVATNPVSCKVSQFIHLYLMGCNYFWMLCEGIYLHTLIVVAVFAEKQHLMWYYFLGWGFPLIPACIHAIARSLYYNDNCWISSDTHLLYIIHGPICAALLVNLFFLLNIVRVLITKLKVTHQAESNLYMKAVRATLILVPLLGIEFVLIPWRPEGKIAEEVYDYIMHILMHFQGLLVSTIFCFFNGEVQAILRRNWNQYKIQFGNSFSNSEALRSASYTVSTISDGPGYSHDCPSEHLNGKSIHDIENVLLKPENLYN
CGRP receptor (SK-N-MC cell membranes), sequence (O60894 27-148, chain 2 of 2, further chain): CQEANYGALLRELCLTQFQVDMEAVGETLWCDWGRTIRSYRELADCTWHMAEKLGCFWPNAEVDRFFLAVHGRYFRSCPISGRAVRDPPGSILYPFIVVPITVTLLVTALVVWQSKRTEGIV

K([γGlu-C16‑Chain])CNTATCALQRLAQELHRLQTYPRTNVGSNTY-NH2 (ends and bridges not checked) [Cmpd 192 ([K^1ε-(γ-Glu(Nα-C16-Chain))]-Cmpd 17)]: the IC50 in experiment [1] worked out at 0.07 nM.
As to KCNTATCALQRLAQELHRLQTYPRTK([γGlu-C16‑Chain])VGSNTY-NH2 (ends and bridges not checked) [Cmpd 189 ([K^26ε-(γ-Glu(Nα-C16-Chain))]-Cmpd 17)], the results for the 50% inhibitory concentration (IC50) in experiment [2], in experiment [3] and in experiment [1] were 75 nM, 4.01 nM and 1.49 nM, respectively.
For KCNTATCALQRLAQELHRLQTYPK([γGlu-C16‑Chain])TNVGSNTY-NH2 (ends and bridges not checked) [Cmpd 188 ([K^24ε-(γ-Glu(Nα-C16-Chain))]-Cmpd 17)] the same measures were 100 nM, 1.61 nM and 0.898 nM.
As to KCNTATCALQRLAQELHRLQTYPRTNVGSNTY-NH2 (ends and bridges not checked) [Cmpd 17], the IC50 in experiment [1] was determined as 0.095 nM.
On to KCNTATCALQRLAQELHRLQK([γGlu-C16‑Chain])YPRTNVGSNTY-NH2 (ends and bridges not checked) [Cmpd 187 ([K^21ε-(γ-Glu(Nα-C16-Chain))]-Cmpd 17)], for which the IC50 in experiment [2] stood at 0.77 nM; in experiment [3], 0.446 nM; in experiment [1], 0.151 nM.
For the molecule KCNTATCALQK([γGlu-C16‑Chain])LAQELHRLQTYPRTNVGSNTY-NH2 (ends and bridges not checked) [Cmpd 193 ([K^11ε(γ-Glu(Nα-C16-Chain))]-Cmpd 17)], the IC50 was found to be 46.5 nM in experiment [2], 0.73 nM in experiment [3] and 0.168 nM in experiment [1].
Turning to K([γGlu-C16‑Chain])KCNTATCALQRLAQELHRLQTYPRTNVGSNTY-NH2 (ends and bridges not checked) [Cmpd 195 (Kε-(γ-Glu(Nα-C16-Chain))-Cmpd 17)], in experiment [1], the IC50 was found to be 0.046 nM.
On to KCNTATCALQRLAQELHK([γGlu-C16‑Chain])LQTYPRTNVGSNTY-NH2 (ends and bridges not checked) [Cmpd 186 ([K^18ε-(γ-Glu(Nα-C16-Chain))]-Cmpd 17)], for which the figures for the IC50 in experiment [2], in experiment [3] and in experiment [1] were 26.3 nM, 0.806 nM and 1.07 nM, respectively.
